Values quoted from earlier work as cited in paper PMC10952613.
pKd: −log10 of the molar value. Where “and” joins values, the source holds several entries; their conditions need not be identical. Equal entries are not always repeated.

Target: EGFR (Homo sapiens) (UniProt P00533)

Q: With EGF (from UniProt P01133) as the substance, how does the pKd read?
A: > 9.00 and < 8.00
